{"source": "patent US20150299265A1", "about": "(Molecular Partners, published 2015)", "key": {"[1]": {"target": "T1, Human HER2 expressed on tumour cells (human, UniProt P04626 23-1255)", "experiment": "cell-based or functional assay"}, "[2]": {"target": "T1, Human HER2 expressed on tumour cells", "experiment": "cell-based or functional assay", "remark": "listed apart in the source"}, "[3]": {"target": "T2, Recombinant human HER2 ectodomain (human, UniProt P04626 23-652, biotinylated on primary amines (for SPR and crude extract ELISA))", "T2 construct": "extracellular domain; also called ErbB2; ectodomain of human HER2; not shown: Flag tag", "experiment": "ELISA on plate-coated full length HER2 (domain I-IV), detection by anti-RGS-His antibody; with and without 500 nM soluble HER2 domain I or domain I-III"}, "[4]": {"target": "T2, Recombinant human HER2 ectodomain", "experiment": "SPR (ProteOn); biotinylated human HER2 on neutravidin chip, monovalent DARPin injected", "method": "Protein binding kinetics of interesting purified HER2-binding DARPins were assayed by Surface Plasmon Resonance (SPR) analysis with a ProteOn array system (BioRad) using a setup, where biotinylated human HER2 was immobilized via neutravidin and the interaction was measured by adding free monovalent DARPin. The determination of Kd values was performed according to standard procedures.\nSPR was measured using a ProteOn instrument (BioRad) and measurement was performed according standard procedures known to the person skilled in the art. The running buffer was PBS, pH 7.4, containing 0.005% Tween 20®. Neutravidin was covalently immobilized on a GLC chip (BioRad) to a level of about 8000 resonance units (RU). Immobilization of HER2 on the neutravidin coated chip was then performed. […] The signals (i.e. resonance unit (RU) values) of an uncoated reference cell and a reference injection (i.e. injection of running buffer only) were subtracted from the RU traces obtained after injection of […] (double-referencing). From the SRP traces obtained from the on-rate and off-rate measurements the on- and off-rate of the corresponding DARPin HER2 interaction can be determined.\nDissociation constants (Kd) were calculated from the estimated on- and off-rates using standard procedures known to the person skilled in the art."}}}
{"binder": "DARPin #41 (designed binder) MRGSHHHHHHGSDLGAKLLSDLGVKLLWAAARGQDDEVRILLAAGADVNAKDFQGITPLHIAAQSGHLEIVEVLLKAGADVNAKDVTGDTPLHLAAQHGHLVIVEVLLKAGADVNAQDERGWTPADLAADWGHEDIAEVLQKLGGGGSGGGGSRSDLGKKLLEAARAGQDDEVRILMANGADVNAKDEYGLTPLYLATAHGHLEIVEVLLKNGADVNAVDAIGFTPLHLAAFIGHLEIAEVLLKHGADVNAQDKFGKTAFDISIGNGNEDLAEILQKLN", "values": [{"measurement": "% activity vs. DARPin # 41, BT474 cell proliferation", "setting": "[1]", "value": 100, "unit": "%"}, {"measurement": "IC50 [nM], inhibition of BT474 cell proliferation (BrdU)", "setting": "[1]", "value": 4.01, "unit": "nM"}, {"measurement": "IC50, inhibition of BT474 proliferation (single experiment of FIG. 2A)", "setting": "[2]", "value": "~2", "unit": "nM"}]}
{"binder": "DARPin #50 (designed binder, also called negative control ankyrin repeat domain) MRGSHHHHHHGSDLGKKLLEAARAGQDDEVRILMANGADVNAKDKDGYTPLHLAAREGHLEIVEVLLKAGADVNAKDKDGYTPLHLAAREGHLEIVEVLLKAGADVNAQDKFGKTAFDISIDNGNEDLAEILQKLN", "values": [{"measurement": "binding result", "setting": "[3]", "value": "no binding (tested: 20 nM (not printed on the sheet))"}]}
{"binder": "DARPin #5 (designed binder, monovalent) MRGSHHHHHHGSDLGVKLLWAAARGQDDEVRILLAAGADVNAKDFQGITPLHIAATNGHLEIVEVLLKAGADVNAKDITGETPLHHAADSGHLEIVEVLLKAGADVNAQDKAGVTPADLAAAWGHEDIAEVLQKLN", "values": [{"measurement": "Kd", "setting": "[4]", "value": 0.0708, "unit": "nM"}]}
{"binder": "DARPin #7 (designed binder, monovalent) MRGSHHHHHHGSDLGIKLLFAAAKGQDDEVRILLAAGADVNAKDFEGYTPLHVAAYDGHLEIVEVLLKAGADVNAKDSQGRTPLHEAAYSGHLEIVEVLLKAGADVNAQDDAGETPADLAAAWGHEDIAEVLQKLN", "values": [{"measurement": "Kd", "setting": "[4]", "value": 1.03, "unit": "nM"}]}
{"binder": "DARPin #9 (designed binder, monovalent) MRGSHHHHHHGSDLGHKLLEAAVAGQDDEVRILLAAGADVNAKDWYGKTPLHFAAGLGHLEIVEVLLKAGADVNAKDEDGQTPLHLAAAYGHLEIVEVLLKAGADVNAQDNDGFTPADLAADSGHEDIAEVLQKLN", "values": [{"measurement": "Kd", "setting": "[4]", "value": 0.417, "unit": "nM"}]}
